Data from doi:10.1101/2024.10.17.618658.

How the values were obtained:
[1] = target: human Juno glycosylated ectodomain (ECD), wild type, with C-terminal SpyTag (human) (UniProt A6ND01); assay: flow cytometry-based bead-binding assay
[2] = target: human Juno ectodomain, infertility-associated variant H177Q, with C-terminal SpyTag (human) (UniProt A6ND01); assay: flow cytometry-based bead-binding assay
[3] = target: human Juno ectodomain, infertility-associated variant H177Q, with C-terminal SpyTag (human) (UniProt A6ND01); assay: AFM-based single-molecule force spectroscopy
[4] = target: human Juno glycosylated ectodomain (ECD), wild type, with C-terminal SpyTag (human) (UniProt A6ND01); assay: AFM-based single-molecule force spectroscopy

Kd [1] | Kd [2] | average median peak bond lifetime under clamped force (40-50 pN) [3] | median bond lifetime under clamped force (before the slip-to-catch transition) [4] | median bond lifetime under clamped force (peak of the catch bond, 40-50 pN) [4] | Substance
110 nM | – | – | – | – | human Izumo1 ectodomain K150A with C-terminal SpyTag (from UniProt Q8IYV9 22-292) (domain or fragment)
45 nM | 64 nM | 0.17 s | 0.02 s | 0.15 s | human Izumo1 glycosylated ectodomain (ECD), wild type, with C-terminal SpyTag (from UniProt Q8IYV9 22-292) (domain or fragment)
